Consider 2 molecules from article PMC10703879, “Antigen-induced chimeric antigen receptor multimerization amplifies on-tumor cytotoxicity” (Signal Transduction and Targeted Therapy, 2023).

The term Kd denotes the equilibrium constant for the complex coming apart. Lower therefore signals tighter binding. In general, stoichiometry N refers to a count of units in the complex or per binding partner.

What all share (settings): both partners purified
For experiment [1], the target named is T1, BCMAECD-His (monomeric, His-tagged human BCMA extracellular domain) (Homo sapiens, UniProt Q02223-1).
T1 construct: B-cell maturation antigen (BCMA), human, extracellular domain; also called His-tagged human BCMAECD
T1 sequence (Q02223 1-54): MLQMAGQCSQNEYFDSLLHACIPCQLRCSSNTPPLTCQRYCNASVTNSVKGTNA
Nature of the experiment: SPR; Biacore 8K, 25 °C, 10 mM HEPES pH 7.4, 150 mM NaCl, 0.05% Tween 20; BCMAECD-His immobilised by amine coupling on CM5; nanobodies as analytes (five two-fold dilutions); Langmuir model for Nb1 and Nb2, heterogeneous ligand model for NbT. On the technique in general: SPR reads the build-up and loss of mass on a sensor chip optically.

The target in experiment [2] is T2, BCMAECD (synthesized extracellular domain of human B-cell maturation antigen, residues 1-54) (human, UniProt Q02223-1).
T2 construct: B-cell maturation antigen (BCMA), human, extracellular domain, residues 1-54 of UniProt Q02223-1; synthesized, without glycosylation; calculated Mw 5.9 kDa; also called BCMA extracellular domain; BCMA ectodomain; source: synthetic peptide (GL Biochem, Shanghai)
T2 sequence (Q02223 1-54): as above
Nature of the experiment: SEC; nanobody-BCMAECD complexes (mixed 1:4, overnight at 4 °C, Superdex 75). A general note: SEC sorts molecules by how far they enter the pores of the column.

The target in experiment [3] is T2, BCMAECD (synthesized extracellular …). Nature of the experiment: AUC; sedimentation velocity; complexes formed by mixing nanobody with excess BCMAECD (molar ratio 1:4, overnight at 4 °C); 1 mg/ml, 45,000 rpm, 20 mM Tris pH 8.0, 100 mM NaCl, 4 °C.
In experiment [4] the target is T3, BCMAECD-Fc (dimerized, Fc-tagged human BCMA extracellular domain) (human, UniProt Q02223-1).
T3 construct: B-cell maturation antigen (BCMA), human, extracellular domain; also called Fc-tagged human BCMAECD
T3 sequence (Q02223 1-54): as above
Nature of the experiment: SPR; Biacore 8K, 25 °C, 10 mM HEPES pH 7.4, 150 mM NaCl, 0.05% Tween 20; BCMAECD-Fc immobilised by amine coupling on CM5; nanobodies as analytes (five two-fold dilutions); Langmuir model for Nb1 and Nb2, heterogeneous ligand model for NbT.

B1: Nb1 (anti-BCMA nanobody 1 of the cilta-cel CAR) (VHH)
VHH: QVKLEESGGGLVQAGRSLRLSCAASEHTFSSHVMGWFRQAPGKERESVAVIGWRDISTSYADSVKGRFTISRDNAKKTLYLQMNSLKPEDTAVYYCAARRIDAADFDSWGQGTQVTVSS
notes: VHH from a phage display library of llamas immunized with BCMA; calculated Mw 13.9 kDa; source: provided by GenScript
Turning to B1, the Kd in experiment [1] turned out to be 3.9 nM; in experiment [4] it was 0.67 nM. In addition, the “stoichiometry N” value in experiment [2] is ~1 Nb1 per BCMAECD (printed 2:2); in experiment [3], 1 Nb1 per BCMAECD (printed 2:2).

B2: Nb2 (anti-BCMA nanobody 2 of the cilta-cel CAR) (VHH)
VHH: EVQLVESGGGLVQAGGSLRLSCAASGRTFTMGWFRQAPGKEREFVAAISLSPTLAYYAESVKGRFTISRDNAKNTVVLQMNSLKPEDTALYYCAADRKSVMSIRPDYWGQGTQVTVSS
notes: VHH from a phage display library of llamas immunized with BCMA; calculated Mw 13.6 kDa; source: provided by GenScript
In the case of B2, the values for the equilibrium dissociation constant (Kd) in experiment [1] and in experiment [4] were 4.2 nM and 3.7 nM, respectively. Also, the “stoichiometry N” value in experiment [2] was ~1 Nb2 per BCMAECD (printed 1:1); in experiment [3], 1 Nb2 per BCMAECD (printed 1:1).
